Data on 167 variants can be found in the RNAGym collection of RNA variant scans (doi:10.7554/elife.80360).

B1: HDV Ribozyme (parent)
chain: GGCCGGCAUGGUCCCAGCCUCCUCGCUGGCGCCGGCUGGGCAACAUUCCGAGGGGACCGUCCCCUCGGUAAUGGCGAAUGGGACCCA

Variants of B1 are the subject of the series. Put plainly: self-cleavage, relative activity (ratio to wild type); higher = more cleavage; co-transcriptional.
For the variant C24A U60A, the self-cleavage was 0.535.

Regarding C21U C36G, the self-cleavage is 0.

As to U20A G39A, the self-cleavage worked out at 0.133.

Turning to A8C G34A, the self-cleavage is 0.0475.

Turning to G1A G54C, the self-cleavage worked out at 0.364.

On to C26U U47G, for which the self-cleavage was 0.877.

With U23C A43G, the self-cleavage is 0.277.

With G2U U46A, the self-cleavage was determined as 0.0187.

Regarding G35A C64U, the self-cleavage was determined as 0.475.

On to G35C U46A, for which the self-cleavage is 0.101.

On to G50C G53A, for which the self-cleavage was found to be 0.665.

With G10A C63U, the self-cleavage worked out at 0.655.

Regarding G55U A78C, the self-cleavage stood at 0.18.

Turning to G6A G55U, the self-cleavage came to 0.831.

Consider U23A C84A, for which the self-cleavage amounted to 0.944.

With C26U A51U, the self-cleavage was 0.901.

For U12G C63G, the self-cleavage came out at 0.727.

Take U47A U69G: the self-cleavage was 1.13.

Take C15A G68A: the self-cleavage came to 0.511.

Turning to G2U C24A, the self-cleavage stood at 0.0554.

C21G A45G: the self-cleavage was 0.185.

Regarding G11A G28U, the self-cleavage came out at 0.0339.

As for C30U C44A, the self-cleavage is 0.117.

On to C41A C49U, for which the self-cleavage turned out to be 0.91.

Consider C44U G67C, for which the self-cleavage turned out to be 0.755.

As for U27A C33G, the self-cleavage was determined as 0.287.

U46A G67A: the self-cleavage is 0.703.

Take G50U G53A: the self-cleavage is 0.971.

On to U23G U79C, for which the self-cleavage turned out to be 0.125.

As to G39U U69A, the self-cleavage turned out to be 0.492.

Consider C21G C57G, for which the self-cleavage is 0.0437.

For C44U C57A, the self-cleavage came to 0.672.

Regarding G68U A83U, the self-cleavage came out at 0.629.

On to C15G A78G, for which the self-cleavage was found to be 0.

C22G G67U: the self-cleavage was 0.0519.

With U27C G50U, the self-cleavage was found to be 0.628.

On to A43G C75U, for which the self-cleavage was determined as 0.0573.

Turning to G6U C61G, the self-cleavage is 0.707.

Consider C19A C30A, for which the self-cleavage amounted to 0.0357.

U12A C26U: the self-cleavage amounted to 0.982.

C24U C48G: the self-cleavage is 0.627.

Consider G38C G54U, for which the self-cleavage stood at 0.185.

Turning to C3A A56C, the self-cleavage turned out to be 0.495.

Turning to A8U A43U, the self-cleavage was 0.125.

With C13G C19U, the self-cleavage was found to be 0.0396.

Turning to A43U U79G, the self-cleavage stood at 0.162.

With U65G G73A, the self-cleavage was determined as 0.363.

As for C32G C64G, the self-cleavage worked out at 0.0405.

On to G67A A70G, for which the self-cleavage came out at 0.712.

For C64U G80U, the self-cleavage amounted to 0.247.

In the case of C36U U72G, the self-cleavage came out at 0.431.

C57G C85U: the self-cleavage stood at 0.849.

In the case of A78U U79G, the self-cleavage came to 0.138.

In the case of G25A U79C, the self-cleavage is 0.0583.

In the case of U12C C18A, the self-cleavage was found to be 0.0739.

Turning to U27C C36A, the self-cleavage was 0.142.

Turning to A16G G17C, the self-cleavage turned out to be 0.214.

In the case of C30U G50U, the self-cleavage is 0.645.

U23C C63G: the self-cleavage turned out to be 0.813.

Turning to G25A G73C, the self-cleavage came out at 0.113.

As for C24U G35C, the self-cleavage was found to be 0.0339.

As to C33U G80U, the self-cleavage was determined as 0.179.

Regarding U37A G39A, the self-cleavage was found to be 0.

Regarding C22G G59A, the self-cleavage was 0.124.

With A8G A56U, the self-cleavage turned out to be 0.831.

Regarding U23A C32U, the self-cleavage was determined as 0.929.

For U27A A45C, the self-cleavage was found to be 0.256.

As for G2C C24A, the self-cleavage amounted to 0.0791.

For the variant G29A G54U, the self-cleavage worked out at 0.119.

Take U37A A78C: the self-cleavage was 0.0997.

G40A A70C: the self-cleavage stood at 0.849.

Consider G35U U65G, for which the self-cleavage worked out at 0.424.

On to U12C A70U, for which the self-cleavage amounted to 0.378.

For the variant G50U G74A, the self-cleavage worked out at 0.453.

On to G39A A83C, for which the self-cleavage was found to be 0.277.

In the case of C48U G50U, the self-cleavage turned out to be 0.742.

A42G C57G: the self-cleavage came to 0.453.

In the case of C13A G31U, the self-cleavage came to 0.0604.

With G50C C85G, the self-cleavage amounted to 0.831.

As to C3A U79A, the self-cleavage came out at 0.175.

On to U23A C49U, for which the self-cleavage turned out to be 1.13.

Turning to C22A G68A, the self-cleavage is 0.298.

U37G U46C: the self-cleavage was 0.128.

Consider C7U U9A, for which the self-cleavage was determined as 0.86.

With C3A G17C, the self-cleavage is 0.0329.

For the variant G25U C26G, the self-cleavage came to 0.816.

C26G U69A: the self-cleavage was found to be 0.886.

Turning to C33U A78G, the self-cleavage is 0.228.

For C15U C57G, the self-cleavage was 1.06.

As to U20C C44A, the self-cleavage was 0.

Consider G5U C57G, for which the self-cleavage was 0.256.

Take G34A C84A: the self-cleavage turned out to be 0.126.

As to C48A U79G, the self-cleavage is 0.982.

In the case of A45U A87U, the self-cleavage amounted to 0.734.

With C14U A87C, the self-cleavage was 1.12.

Take C48A A77G: the self-cleavage came to 0.601.

On to G25U A78C, for which the self-cleavage was determined as 0.0665.

Regarding G40A U69C, the self-cleavage amounted to 0.876.

As for G17A C32G, the self-cleavage turned out to be 0.0415.

Regarding A56C C58G, the self-cleavage amounted to 1.26.

For G1C U20C, the self-cleavage amounted to 0.0723.

U20A C66U: the self-cleavage was found to be 0.0773.

As to C15G G25A, the self-cleavage was determined as 0.161.

As to G2C C21A, the self-cleavage is 0.

Regarding C26G C85G, the self-cleavage was 0.965.

In the case of C26G A70C, the self-cleavage worked out at 0.957.

As for G5U G80A, the self-cleavage turned out to be 0.208.

Consider G17A C86A, for which the self-cleavage turned out to be 0.538.

For G5C G29A, the self-cleavage is 0.147.

In the case of C32U G53A, the self-cleavage was determined as 1.01.

G25U A87U: the self-cleavage is 0.109.

Turning to G31A G52U, the self-cleavage amounted to 0.531.

As to G38A C64G, the self-cleavage is 0.142.

In the case of C4U G52C, the self-cleavage worked out at 0.776.

For the variant U79C C85G, the self-cleavage stood at 0.287.

For the variant G5C C63U, the self-cleavage was 0.0437.

For the variant C14G C22G, the self-cleavage came out at 0.

G5A C85U: the self-cleavage was 0.142.

Consider U37A C62A, for which the self-cleavage was found to be 0.212.

Regarding U27G A51U, the self-cleavage worked out at 0.677.

On to U69A A83C, for which the self-cleavage was 0.499.

With C66U U69A, the self-cleavage was determined as 0.831.

C18U U60A: the self-cleavage was determined as 0.852.

In the case of C7A G35C, the self-cleavage is 0.0665.

Take G1U C32G: the self-cleavage worked out at 0.305.

Take G11C C84U: the self-cleavage is 0.18.

With G28C U46A, the self-cleavage stood at 0.107.

Consider C14U G74U, for which the self-cleavage came to 0.733.

As to G10C G52U, the self-cleavage is 1.03.

Turning to C75U G76U, the self-cleavage was 0.271.

Regarding C4U G81A, the self-cleavage was found to be 0.136.

For C3A C63A, the self-cleavage turned out to be 0.492.

As for U12C G67C, the self-cleavage amounted to 0.256.

Take G17C A83G: the self-cleavage was 0.131.

Turning to U20G G80A, the self-cleavage is 0.0831.

For C19U C33A, the self-cleavage is 0.0665.

For the variant C58G G67A, the self-cleavage amounted to 1.28.

Regarding A43G A71C, the self-cleavage was 1.01.

As to G28U C75G, the self-cleavage is 0.0302.

With C3A G59C, the self-cleavage stood at 0.668.

For G54U C75G, the self-cleavage was found to be 0.114.

In the case of C36U A43G, the self-cleavage is 0.196.

On to C63G G73A, for which the self-cleavage worked out at 0.424.

U37C G53A: the self-cleavage came to 1.04.

For C44G A77U, the self-cleavage was 0.0978.

Consider A8C G25U, for which the self-cleavage is 0.138.

Regarding C4A G73A, the self-cleavage amounted to 0.

As to C49U C86G, the self-cleavage is 1.16.

Take C32U C44G: the self-cleavage amounted to 0.374.

Regarding A42C U69G, the self-cleavage is 0.246.

Consider C4A G81U, for which the self-cleavage turned out to be 0.128.

On to C4A G68U, for which the self-cleavage turned out to be 0.453.

For the variant C36G C64G, the self-cleavage is 0.156.

G11C C49G: the self-cleavage is 0.0504.

Consider G35C A70G, for which the self-cleavage turned out to be 0.208.

Regarding G31C A42G, the self-cleavage came out at 0.0755.

Turning to C18U C62U, the self-cleavage was 0.831.

Turning to C13G C30G, the self-cleavage stood at 0.0426.

Consider G38U A70U, for which the self-cleavage was 0.277.

Turning to G11A A83G, the self-cleavage was determined as 0.0831.

In the case of G1C C15U, the self-cleavage stood at 0.0831.

For the variant C24G G81C, the self-cleavage is 0.032.

Regarding A56C A78G, the self-cleavage was 0.706.

With C18A C32U, the self-cleavage turned out to be 0.145.

Consider G6U A56G, for which the self-cleavage worked out at 0.623.

Consider C3G C44A, for which the self-cleavage is 0.312.

Regarding C14G C24G, the self-cleavage was 0.
